Experiment [1] has as its system midbrain dopaminergic (TH+) neurons. Description: MPP+ intoxication model in midbrain cell cultures, survival of DA (TH+) neurons. In kind it is cell-based, Wistar rat. As to the method:
For this purpose, spontaneously occurring DA cell death was prevented by a treatment combining depolarizing concentrations of K^+ (30 mM) and MK801 (5 μM), a glutamate receptor antagonist used to prevent unwanted excitotoxic insult. The cultures were then exposed to 3 μM MPP between 5 and 7 days in vitro (DIV) to achieve a loss of approximately 50% of DA neurons.
Animals were treated in accordance with the Guide for the Care and Use of Laboratory Animals (National Research Council, 1996), European Directive 86/609, and the guidelines of the local institutional animal care and use committee. Cultures were prepared from the ventral mesencephalon of gestational age 15.5 Wistar rat embryos (Janvier Breeding Center, Le Genest St Isle, France). Dissociated cells in suspension obtained by mechanical trituration of midbrain tissue pieces were seeded at a density of 1.2-1.5×10^5 cells/cm^2 onto tissue culture supports precoated with 1 mg/mL polyethylenimine diluted in borate buffer pH 8.3 as described (Michel et al., 1997. J Neurochem. 69(4):1499-507). The cultures were then maintained in N5 medium supplemented with 5 mM glucose, 5% horse serum, and 0.5% fetal calf serum, except for the first 3 DIV, when the concentration of fetal calf serum was 2.5% to favor initial maturation of the cultures (Guerreiro et al., 2008. Mol Pharmacol. 74(4):980-9). They were fed daily by replacing 70% of the medium. Routinely, mesencephalic cultures were established on Nunc 24-well culture plates (Thermofischer Scientific, Rochester, N.Y.). Note that these cultures contain tyrosine hydroxylase (TH)^+ neurons that were exclusively dopaminergic (Traver et al., 2006. Mol Pharmacol. 70(1):30-40). TH^+ neurons represented approximately 1-2% of the total number of neuronal cells present in these cultures. The evaluation of the survival of DA neurons was performed by counting cells immunopositive for TH as described (Toulorge et al., 2011. Faseb J. 25(8):2563-73).
Treatments with MPP were performed in cultures where the spontaneous death process was prevented by long-term exposure to depolarizing concentrations of K^+ (30 mM), in the presence of the glutamate receptor antagonist MK801 (5 μM) to prevent unwanted excitotoxic insults as described previously (Douhou et al., 2001. J Neurochem. 78(1): 163-74). Treatments with MPP and potential neuroprotective molecules were carried out between 5 and 7 DIV.
The cultures were fixed for 12 min using 4% formaldehyde in Dulbecco's phosphate-buffered saline (PBS), then washed twice with PBS before an incubation step at 4° C. for 24 h with the following antibodies. A monoclonal anti-TH antibody diluted 1/5000 (ImmunoStar, Inc., Hudson, Wis.) was used to assess the survival of DA neurons. Antibody was diluted in PBS containing 0.2% Triton X-100. Detection of the primary antibodies was performed with an Alexa Fluor-488 conjugate of an anti-mouse IgG antibody.

A further experiment relates to IL-10. Description: IL-10 levels in mice after intravenous injection (plasma ELISA). Conditions: mouse. Here is the method: To test whether the anti-inflammatory properties of agonistic anti-CD38 antibodies were also observe in vivo, we intravenously injected anti-CD38 antibody clone HB7 (15 mg/kg) to mice.
Blood samples collected in collection tube (Microvette® 500 EDTA-K3, […]) were centrifuged at 3000 rotations per minute during 15 minutes. Supernatants (plasma) were collected and transferred into tubes and froze at −80° C. for further analysis. IL-10 levels in plasma samples were assayed using an ELISA IL-10 kit (BioLegend®) according to the indications for use specified by the manufacturer.

B1: sCD31: soluble form of CD31; murine sCD31 with SEQ ID NO: 3 (protein)
chain: MLLALGLTLVLYASLQAEENSFTINSIHMESLPSWEVMNGQQLTLECLVDISTTSKSRSQHRVLFYKDDAMVYNVTSREHTESYVIPQARVFHSGKYKCTVMLNNKEKTTIEYEVKVHGVSKPKVTLDKKEVTEGGVVTVNCSLQEEKPPIFFKIEKLEVGTKFVKRRIDKTSNENFVLMEFPIEAQDHVLVFRCQAGILSGFKLQESEPIRSEYVTVQESFSTPKFEIKPPGMIIEGDQLHIRCIVQVTHLVQEFTEIIIQKDKAIVATSKQSSEAVYSVMAMVEYSGHYTCKVESNRISKASSIMVNITELFPKPKLEFSSSRLDQGELLDLSCSVSGTPVANFTIQKEETVLSQYQNFSKIAEESDSGEYSCTAGIGKVVKRSGLVPIQVCEMLSKPSIFHDAKSEIIKGHAIGISCQSENGTAPITYHLMKAKSDFQTLEVTSNDPATFTDKPTRDMEYQCRADNCHSHPAVFSEILRVRVIAPVDEVVISILSSNEVQSGSEMVLRCSVKEGTSPITFQFYKEKEDRPFHQAVVNDTQAFWHNKQASKKQEGQYYCTASNRASSMRTSPRSSTLAVRVFL
modifications: Soluble CD31 (sCD31)
On to B1, for which the “EC50 of prevention of MPP+-induced DA cell loss” value in experiment [1] (3 μM MPP+ between 5 and 7 DIV, sCD31 during the intoxication period) worked out at 0.036 µg/mL. The “neuroprotective effect against MPP+-induced DA cell death” value in experiment [1] (3 μM MPP+ between 5 and 7 DIV, test substance up to 1 μg/mL) was “prevented”. The “neuroprotective effect in the presence of antagonistic anti-CD38 antibody clone AT13/5” value in experiment [1] (3 μM MPP+, test substance 1 μg/mL, AT13/5 1 μg/mL) is given as “antagonized”. In addition, in experiment [1] (3 μM MPP+, test substance 1 μg/mL, Moon-1 1 μg/mL), the “neuroprotective effect in the presence of anti-CD31 antibody clone Moon-1” value was “antagonized”. For the same molecule, the “neuroprotective effect in the presence of antagonistic anti-CD38 antibody clone OKT10” value in experiment [1] (3 μM MPP+, test substance 1 μg/mL, OKT10 1 μg/mL) is recorded as “antagonized”. For the same molecule, the “neuroprotective effect in the presence of endosidin2” value in experiment [1] (3 μM MPP+, test substance 1 μg/mL, endosidin2 40 μM) is given as “antagonized”. The “neuroprotective effect in the presence of the tyrosine kinase inhibitor genistein” value in experiment [1] (3 μM MPP+, test substance 1 μg/mL, genistein 10 nM) was “antagonized”. Besides, in experiment [1] (3 μM MPP+, test substance 1 μg/mL, vacuolin-1 10 μM), the “neuroprotective effect in the presence of the lysosomal exocytosis inhibitor vacuolin-1” value is reported as “antagonized”. Also, in the experiment with IL-10, the “release of IL-10 in vivo (conclusion in words)” value is given as “strong release”.

The record behind these values is patent publication US20220089765A1, “CD31 COMPETITORS AND USES THEREOF” (ENCEFA, priority 2019, published 2022).
